The target in test [1] is C-terminally truncated amyloid-beta fragment Aβ1-23 (human). The test can be described thus: SDS-PAGE and immunoblot.
Test [2] deals with C-terminally truncated amyloid-beta fragment Aβ1-25 (human). The test can be described thus: SDS-PAGE and immunoblot. (In general: In western blotting, separated proteins are transferred to a membrane and probed.)
Test [3] shares this target. Nature of the test: SDS-PAGE and immunoblot. The source holds these as a separate data set.
For test [4], the target named is C-terminally amidated amyloid-beta fragment Aβ1-24-NH2 (human). The test can be described thus: high-resolution LC-MS.
For test [5] the target is unchanged. Nature of the test: SDS-PAGE and immunoblot.

Where “and” joins values, the source holds several entries; their conditions need not be identical. Equal entries are not always repeated. Where two headings read alike, the source gives them in different places.

One may read the stoichiometry N as the number of molecules, sites or subunits per partner or assembly. As for “C-terminally truncated amyloid-beta fragment Aβ1-23 (peptide)”, the stoichiometry N in test [1] was 3 and 2.

In the case of “C-terminally truncated amyloid-beta fragment Aβ1-25 (peptide)”, the values for the stoichiometry N in test [2] and in test [3] were 3 and 2, respectively.

As for “C-terminally amidated amyloid-beta fragment Aβ1-24-NH2 (peptide)”, the stoichiometry N was 3 and 2 and 5 in test [4]; 2 and 3 in test [5].

The values above are taken from paper doi:10.1101/2022.12.04.519021.
